Biological target: Gp57 (purified) (phage SECΦ27)
Assay: ITC

CapRel^SJ46 (purified, full-length) (enzyme)
Kd: 190 nM
